Data published in the nanobody polyreactivity screen of Harvey et al. (2022).

Assay: yeast display, Sf9 membrane polyspecificity reagent, FACS + sequencing; frameworks hold sequencing errors
How it was run: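 Using colony PCR, genes from sorted yeast display clones were amplified, then sequenced on MiSeq at 2 × 250 and filtered by CDR length. The clones had been stained with 10% biotinylated, detergent-solubilized Sf9 membrane reagent for 1 hour at 4 °C and sorted by FACS into low and high (top ~1%) gates on anti-HA and streptavidin fluorescence. Polyreactivity labels come from the gate of origin.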

| Sequence | polyreactivity (PSR sort gate) |
| --- | --- |
| QVQLVESGGGLVQAGGSLRLSCAASGSTFVPNAMGWYRQAPGKERELVAAISSVGSTNYADSVKGRFTISRDNAKNTVYLQLNSLKPEDTAVYYCAVRYPWRYFKYGYWGQGTQVTVSS | low polyreactivity |
| QVQLVESGGGLVQAGGSLRLICAASGKTFSDYAMGWYRQAPGKERELVAAISSSGVRTYYADSVKGRFTISRDNAKNTVYLQMNSLKPEDTAVDDCNAGYVRRYYPASGYGYWGQGTHVTVSS | high polyreactivity |
| QVQLVESGGGLVQAGGSLRLSCAASGFTFGRYTMGWYRQAPGKERELVAAISWSGGSTYYADSVKGRFTISRDNAKNTVYLQMNSLKPEDTAVYYCAKVFRGGRGDYWGQGTQVTVSS | high polyreactivity |
| QVQLVESGGGLVQAGGSLRLSCAASGRIFHPNAMGWYRQAPGKERELVAAITNSGGITYADSVKGRFTISRDNAKNTVYLQMNSLKPEDTAVYYCNTATNRFHYKYRKPYDYWGQGTQVTVSS | low polyreactivity |
| QVQLVESGGGLVQAGGSLRLSSAASGRTFSSYAMGWYRQAPGKERELVAAINWSGASTYYADSVKGRFTISRDNAKNTVYLQMNSLKPEDTAVYYCAKSLYVGKYWQIRSSVDYWGQGTQVTVSS | low polyreactivity |
| QVQLVESGGGLVQAGGSLRLSGAASGSTFYPNAMGRYRQAPGKERELVAAISGRGGRTYYADSVKGRFTISRDFAKNTVYLQINSLKPEDTAVYYCNIVRASDHYDYWGQGTQVTVSS | high polyreactivity |
| LVQLVESGGGLVQAGGSLRLSCAASGSLFVVTAMGWYRQAPGKERELVAAFSSGGRTYYADSVKGRFTISRDNAKNTVYLQMNSVKPEDTAVYYCAAGGWRGHCYWGQGTQVTVSS | high polyreactivity |
| QVQLVESGGGCSGGRSLRLSCAASGLIFDDNAMGWYRQAPGKERELVAAITWSTSSTYYADSVKGRFTISRDNAKNNVYLQMNSLKREDTAVYYCNKRYKFRYYYWGQGTQVTVSS | low polyreactivity |
| QVQLVESGGGLVQAGGSLRLSCAASGSIFYGYVMGWYRQARGKERELVAAITRSGSTYYADSVKGRFTISRDNAKNTVYLQMNSLKPEDTAVYYCAAAAKRKYYWGQGNQVTVSS | high polyreactivity |
| QVQLVESRGGLVQAGGSLRLSCASSGFTFSINAMGWYRQAPGNERELVASITWSGGRTYYADSVKGRFTISRDNAKNTVYLQMNSLKPEDTAVYYCAARSYGTSTYDYWGQGTQVTVSS | high polyreactivity |
| QVQLVESGGGLVQAGGSLRLSCAASGSISYTYAMGWYRQAPGKERELVAAISYSDGITYYADSVKGRFTISRDIAKNTVYLQMNSLKPEDTAVYYCAVEGVYPYYDQSEYDYWGQGTQVTVSS | high polyreactivity |
| QVQLVDSGGGLVQAGGSLRLSCAASGLTFYHYTMGWYRQAPGKERELVPAITKNGGSTYYADSVKGRFTISRDNAKNTVYLQMNSLKPEDSAVYYCAAYEFGLLRYYSGRSYYYWGQGTQVTVSS | high polyreactivity |
| QVQLVESGGGLVQAGGSLRLSCAASGSIFSPNAMGWYRQAPGKERELVAAISRGDSTYYADSVKGRFTISRDNAKNTVYLQMNSLKPEDTAVYYCAATYLRRPVSGAYRSEYNYWGQGTQVTVSS | high polyreactivity |
| QVQLVESGVGLVQAGGSLRLSCAASGFIFKRYAMGWYRQAPGKERELVATISNSGGRTYYADSVKWRFTISRDNAKNTVYLQMNSLKPEDTAVYYCAALPFWWGGYWGQGTQVTVSS | high polyreactivity |
| QVQLVESGGGLVQAGGSLRLSCAASGRIFPRYGMGWYRQAPGKERELVADITSSGSTYADSVKGRFTISRDNAKNTVYLQMNSLKPEDTAVYYCNALYRRLSYSWRYRQLYDYWGQGTQVTVSS | high polyreactivity |
| QVQLVESGGGLVQAGGSLRLSCAASGSIFWGYAMGWYRQAPGKERELVAVISRGGSTYYADSVKGRFTISRDNAKNTVYLQMNSLKPEDTAVYYCADSSSWFYSPEYDYWGQGTQVTVSS | low polyreactivity |
| QVQLVESGGGLVQAGGSLRLSCAASGSTFAKYAMGWYRQAPGKERELVASIRLSGGSTYYADSVKGRFTISRDNAKNTVYLQMNSLKPEETAVYYCNKQFATFYYCFDYYYWGQGTQVTVSS | low polyreactivity |
| QVQLVESGGGLVHAGGSLRLSCAASGSIFGVNARGWYRPAPGKERELVAAISSTGSRTYYADSVQGRFTISRDNAKNTVYLQRNSLKPEETAVYYCAAYLTRYGAYYWGQGTQVTVSS | high polyreactivity |
| QVQLVDSGGGLVQAGGRLRLTCAASGSTFGPNAMGWYSPAPGKERELVADISGGSTNYADSVKGRFTISRDNAKNTVYLQMKSLKPEDTAVYSCATDDHVEPVRRLYGYWGQGTQVTVSS | low polyreactivity |
| QVQLVESGGGLVQAGGSLRLSCAASGRTFEGNAMGWDRQAPGKERELVAALTYPGGDTHYADSVKGRCTISRDNPKNTVYLQMTSLKPEDTAGYYCAADWGWPHTDSMDYWGQGTQVTVSS | low polyreactivity |
| QVQLVDSGGGLVQAGGSLRLSCAASGSTFWYNAMGWYRQAPGKERELVAANSISDGNTYYADSVKGRFTISRDNAKNTVFLQMYSLKPEDTAVYYCNAGYWYDGPDYITEYDYWGQGTQVTVSS | low polyreactivity |
| QVQLVESGGGLVQAGGSLRLSCAASGRTFPFYAMGWYRPAPGTERELVASIRGGGGTNYADSVKGRFTISRDNAKNTVYLQMNSLKPEDTAVYYCAARGYGYRGYYYWGQGTQVTVSS | high polyreactivity |
| QVQLVESGGGLVQAGGSLRLSCAASGSIFITYAMGWYRQAHGKERELVAAIRDSGDRTYYADSVKGRFTISRDNAKNTVYLQMNSLKPEDTAVYYCNKDIERYVRIYDSWGQGTQVTVSS | low polyreactivity |
| QVQLVESGGGLVQAGGSLRLSCAASGFIFERNTMGWYRQAPGKERELVATISRSAGNTYYADSVKGRFTISRDNANNTVYLQMNSLKPEDSAAYYCAKDHRTRGYDYWGQGTQVSVSS | low polyreactivity |
| QVQLVESGGGLVQAGGSLRLSCAASGRILPSNAMGWYRQAPGKDRELVATISSSGGDTYYADSVKGRFTISRDNAKNTVYLQMKSLKPEDTAVYSCNAAGRTPSTGFDYDYWGQGTQVTVSS | low polyreactivity |
| QVQLVESGGGLVQAGGSLRLSCAASGLIFSRYTMGWYRQAPGKERELVAAISGRGTSTYYADSVKGRFTISRDNAKNTVYLQMNSLKPEDTAVYYCATSKSYSAFDYWGQGTQVTVSS | high polyreactivity |
| QVQHVESGGGLVQARGSLRLSCAASGSTIKHYGMGWYRHAPGKERELVAAITSGGRTYYADSVKGRFTISRDNAKNTVYLQMNSLKQDDSAGYYCAALRVQQVKSYYYWGQGTQVTVSS | high polyreactivity |
| QVQLVESGGGLVQAGGSLRLSCAASGFIFDVNAMGWYRQAPGKETELVAAISKSGRRTYYADSVKGRFTISRDNAKNTVYLQMNSLKPEDTAVYYCAASLRASPSFGYWGQGTQVTVSS | high polyreactivity |
| QVQLVESGGGLVQAGGSLRLSCAASGFTFTRYAMGWYRPAPGKERELVAAISSRGGSTNYADSVKGRFTISRDNAKNTVYLQMNSLKPEDTAVYYCAAVYYRLRYEYDYWGQGTQVTVSS | high polyreactivity |
| QVQLVESGGGLVQAGGSLRLSCAASGSTFYFYAMGWYRQAPGKEREFVAAITASGGSTYYADSVKGRFTISRDNAKNTVYLQMNSLKPEDTAVYYCAARFSYWKTKRAYDWGQGTQVTVSS | high polyreactivity |
